According to the DeepSol protein solubility set:

assay: soluble on expression in E. coli; label from the status in PepcDB or PDB records

Sequence | soluble on expression in E. coli
GAKESEQKVTIDSAKHEKHTKDKEENNSANTVFFDKINDLLVASVKEFEGTVGISYLDLETGEQRSVNGQHEFYTASTIKVPLTMLVADTVASGQKKWTDLIPYNAEEDYEEGTGIIAYNIQPEYPLKTLQEYAITYSDNIAKNMLYDTLGGDAKAKREMYQRYLHKTPSIEEPQFSSEDALVILQKLYTEKATKPDYQAIYDSMKQSVFHERMETPTTQGKVAHKIGSYDEFIHDMGILETPHPFALAIFTKGPDNAKSAAFIASVTDKLWQLQVSEYPNQ | soluble
MSVVAQVSGEEVTRLLAPIDPAVPAGLFDVEDETYQAIDQEMVKLGGLQEASIDWVYIEDASRQYLSQQCKHLRIVAHLSAAWLRSGCWEQWGCTLALLAGMLECYWEAAHPKPGPKGFLGKRKLVALVIDRLAEALPRLDRFTYTPTHAAAAQAALKRLQQQETVQLDTAALGELERLLGKYSELANGVGEAAVPKAPAATEKPAPLADVIATPVSRMSMGNERETRRAVLSMAELINQQDPYDATGYQLRRFGLWAHIQVAPQVRQGNRTELMAVPLDITRFYEEAIASKAVDPALLQRIEKSLTACPFWIRGSFLAATVATQLAMCEVAEAIRCATARFVQRMPSLQQLCFSDGMVFVDDQCLAWLKGTQGPSGQGATPQEFSGLREELVSQLETGGIEPLLLRLQGLQAGVRAPRERCHTTVIAADLLAARGVSWLAQDLCANVARTMQQTTASAWEPEVFERLQQYAASPVLAVQDKDQEPR | not soluble
MSLDDAKLTASKEAKRIVIQSIQRVATETAIENSVTVFHIESDEIKGRIIGREGRNIRALEAATGVEIVVDDTPEAIVLSAFDPVRREIARLALHQLVTDGRIHPARIEEVVSKVRKQVEEEIIETGKRTTIDLGIHGLHPELIRIIGKMKYRSSYGQNLLQHARETANLCAVMASELGLNPKKAKRAGLLHDIGKVPDEEPELPHALLGMKLAEKYKEKPDICNAIGAHHDETEMTSLLAPIVQVCDAISGARPGARREIVEAYIKRLNDLEQLAMAYPGVTKTYAIQAGRELRVIVGADKIDDKQTESLSGEIAKKIQDEMTYPGQVKITVIRETRAVSFAKEGHHHHHH | not soluble
MSLSDPVKVFLADNLRRYDAAVLVMSLPGFYRISADLMIEKNHDVPVVVVDDAGRFAVAASAGHAGGSDELAAYIAGIIDGQAVITDGIESGGRVSVEKIARSLLATIANPECIIPVNAAIANGEHVPVIFRSKKRSMLRRLFAESSDEKHGYAIVLADEPGEDANTCYLIPDDISIGIGFNSSADAELISACLERFLEEAGLAWEDIDYVSSIKDLPDVSIIRKGTRFVKFDPADIRDIDPEMLTHVSDKARDVFGVPGVAEPCAIRSLGPGSKIFLPFRSCGRSVTLAAARREGHHHHHH | soluble
MSAATYRKLTSANLLDPVRCRLLISRNRCRVTGVKVPNPLKKVSNFFWRYRAPQAAPGHANPAYFPEADNFED | not soluble
MTTATSERQKTLLFKAAERQWKEEFAGKETDIRKVDCNIYKGILYQLEIRQVFLDTSLSLKKLSALLETNQTYLSNVVNKYFGCNLKELVNTYRVEYAKELLCSRRCALTELPCSCGFASKSAFYSAFSRIVGVSPLSYQTQERRLEHHHHHH | soluble
MKYDDTINIAFFGLDRRQKTDISRSDSIMILTMDPTHKKLKLSSIMRDTYVNVDGHGMTKITHAYAYGGPQLAIKTINENFNLNIKDYVTVDFYGLEKIIDKLNGVEVDVQPDEVNYLNSYIDEVSKYEKVTPNHVSSAGKQLLDGRQAVAYSRIRYTAGGDFQRTERQRTVLMAVFNKMKAQGKSNMLSMMDELLPYAETDLGSLDIAKYGAKFLSSNIDSIDQERFPVDGYCSGITVDNVWYLKTDLGVTSDQMKKYIFEDVKPTPKASLVNIPAKLEHHHHHH | soluble
MTEGDDQLISIRKQLENLNNATDDINSYEMKLETVKKQFCETQLMFNKEMLGIPKKLAKHISKSRQFFDLKSRESEIRRCVQQAAAQFERQKTSVEMAREQVQILHNSLNNNQELDAEKQYVDVIEQQLELVKEAEGECLKAEKCHASRVRDLLQLEMALRKCLEENGSAIKKSRPYYERKEVLTRTMNSQLELMSILEHEVQERKDSYSDSMRALEQISDQIHQERSSQSSLAPSSDAESDSS | not soluble
MGSDKIHHHHHHMTKRILEVNVDDNGYSGVYSLIKRVIENKPADYQIDLACLEPFESQQNIDYLNKLGTQVYYIGYPGNKIKKQLKYYEKLQKVVKDGNYDYVHIHGDVANKLYVTALAARKADSGVKIILQSHASDVDGSHRQLKRFIHKSLRGKLVKLADCYVSVSDLASNWMFPSIPKSQVIKIMNGVDLAAFRYDPIIRKRIRKELGLSRKHVLGHIGRFAYQKNHQYLIQVFAKVYAQDPQARLLLVGKGDLQDECKHQVHDLGLDKQVIFYGLSSNTSELFQAMDVFLLPSHFEGLPIVGVEAQAAGLPVIFSDQITSEAKMTNNVSFLPIDETSLSAWQSQVIKDLELGHRDDYDLLSRQKLDITDTVAAFMKLYNS | not soluble
MGSDKIHHHHHHPSEEVAKSGNPVFEGWYADPEGIIYGDTYWIYPTTSDLYEKQTFFDCFSSKDLVSWTKHTAILDTAEVKWAKIAMWAPSVINKDGKYYLFFGANDVHEGEIGGIGVAVSDRPEGPYKDLLGKPLINEIVNGAQPIDQFVFHDADNDEYYMYYGGWKHCNMVRLNKDFTGLIPFEDGTIYKEVTPKDYVEGPFMFKKNGKYYFMWSEGGWTGPDYKVAYAISDSPFGPFNRIGEVLRQNFDMANGAGHHSIMHVPNSEDYYIVYHRRPAGVKTRDHRETCIEKMTFNEEGLINPVEITTEGVEARTIQ | not soluble
MPKSAKRRASQPTGAETLVVVESPAKARSIQKMLGPGYEVRASLGHVVDLPERSLGVDVERDFAPTYEVKKDKKPVVEELKRAAEGKRLLIATDPDREGEAIGWHVARLLGRDPKEPLRVEFHEITPRVVRQAVEAPRPIDQNLVDAQQARRVLDRLLGYNLSPLLSLEFRKRALSAGRVQSVALRLVVEREEAIEAFRPEEYWVLRGVFAVEGGEAPLVATLHEVEGKRLWTGQGEKEGRLHLASEAEAHALAEALRKGSYRVAQVEVRERRKAPPPPFTTSTLQQAASSRLGYTAARTMRIAQRLYEGVDLPEGTVGLITYMRTDSVRVAPEAVAAAREVIGKAFGPEYLPEAPRAYKNRREGVQDAHEAIRPTDPKRTPESVRPYLSEEEYRLYELIWRRFLASQMRDALYEQTAVTLADLEGRYAFRASGSVLRFEGYLRAWGRDAEEEEEPPVPAVPEGVPARLEEVLEERRFTEPPPRYTDASLVKTMEELGIGRPSTYAPTLETLEKRGYVARKGRTLFPTPLGRQVTAYLRERFPQVVAYEFTARMEERLDEVEEGRVPWPKVVWEFYEPFLGELAQVPKKTCPRCGRPLELKVSRYGQFLGCTGYPECTYTEPLERREAEPIGEACPKCGRPLLRKEGRYGTFIACSGYPECDYTRDDGTPTGHTCPKCGGRVLEKRSRKGRPYYKCENNACDFLSFYPLLEEACPACGWPLVKKGEKALCLNPACPEHEPSLLPAPKEAKKGRSRGKGKPPLAPPKDWEELVPFLPGLSPEERRAVEALARGEALARGEALAEEEARLARRALFKLRMRKGKARKEPVRA | soluble
MGSDKIHHHHHHMTDHVIAHAFSYRHASRRKPALVDLTLKISRGERVLLLGASGSGKSTLLAAIAGVLADEDGEHSGELQVSGTPGMVLQDPDSQVISSRVGDDVAFGCENMCVPRDQIWPRVTQALAQVGLDLPLDHPTSELSGGQKQRLALAGVIAMGADIVLLDEPTANLDPDGVREVVSNISRAVETTGATMIVVEHRVSTWLDHVDRIIALGPDSRVLADGPARDVIAKHGRELSELGIWVPENDPQLPAALTPTHSDTAIHARELAVGWNQPLGTYGFDIPAGASTVITGANGKGKSTLLLTLAGLLPAHSGRVEVAHNIARGLHTDPLRWKSKELSSRFGFVFQDPEHQFVAATVREEMRVGLHDHNHLARADLLLERLRLDHLAEANPFTLSGGQKRRLSVATILVNTPDVVFLDEPTFGQDRTTFIELVTLLRELTDAGTTVVSITHDELYRRCLGDKEIAL | not soluble
MVVLGRIAGPHGIRGQIKVIPFTEYVDGLMEYPVWCLSRDEKNWQIVRPATFFIHDNLLIVTLTGYSDRTSASELKGLLVAVPRSQLPPLSKDGEDGYYWTDLIGISVVNMQGEPLGTVAGLFETGANDVLRVRLSGSSKDELIPFVDQVIRQVDLESRQITVDWELGYLEHHHHHH | not soluble
